# fluorescein = fluorescein label attached at the ε-amino group of the C-terminal lysine
# B1: DX254 (peptide)
# peptide: Ac-AGYYWCNYWGLCPDQGTPGPEGGGK-NH2
# modifications: not fully specified (bridges); printed as Ac-AGYYWCNYWGLCPDQGTPGPEGGGK-NH2; cysteine pairing not given here; also: fluorescein-labelled form in anisotropy assays, place not given here
# notes: Fluorescein-labelled in anisotropy assays; immobilised in batch assays
# B2: DX252 (peptide)
# peptide: Ac-GDDDHCYWFREWFNSECPHGEPGPEGGGK-NH2
# modifications: not fully specified (bridges); printed as Ac-GDDDHCYWFREWFNSECPHGEPGPEGGGK-NH2; cysteine pairing not given here; also: fluorescein-labelled form in anisotropy assays, place not given here
# notes: Fluorescein-labelled in anisotropy assays; immobilised in batch/column assays
# B3: DX301 (peptide)
# peptide: Ac-GDRRACSRDWSGALVWCAGHEPGPEGGGK(fluorescein)-NH2
# modifications: not fully specified (bridges); printed as Ac-GDRRACSRDWSGALVWCAGHEPGPEGGGK-NH2; cysteine pairing not given here
# notes: also called fluoresceinated DX253
# B4: DX300 (peptide)
# peptide: Ac-AGKYWCSFWGLQCKTGTPGPEGGGK(fluorescein)-NH2
# modifications: not fully specified (bridges); printed as Ac-AGKYWCSFWGLQCKTGTPGPEGGGK-NH2; cysteine pairing not given here
# notes: also called fluoresceinated DX250
# Key:
# [1] = target: T1, human IgG3 (human, UniProt P01860-1 1-377); assay: fluorescence anisotropy; pH 7.4 PBS
# T1 construct: Calbiochem; plasma IgG3 in anisotropy studies, myeloma-derived (cat. 400124) in batch/column studies; also called hIgG3
# Procedure: (§1) All measurements were performed in 384 well microplates with 20 nM fluorescein-labeled peptide and various concentrations of the IgG isoform in a volume of between 10 and 20 μl using a Tecan Polarion fluorescence polarization plate reader. All binding buffers included 0.01% (v/v) Tween 20 to prevent peptide adsorption to the microplate. The binding mixture was equilibrated for 10 minutes in the microplate at 30° C. prior to performing the measurement.
# [2] = target: T2, human IgG2 (human, UniProt P01859-1 1-326 = IgG part); assay: fluorescence anisotropy; pH 7.4 PBS
# T2 construct: Calbiochem; plasma IgG2 in anisotropy studies, myeloma-derived (cat. 400122) in batch/column studies; also called hIgG2
# Procedure: as §1
# [3] = target: T3, human IgG1 (human, UniProt P01857-1 1-330 = IgG part); assay: fluorescence anisotropy; pH 7.4 PBS
# T3 construct: Calbiochem; human plasma IgG1 in anisotropy studies, myeloma-derived (cat. 400120) in batch/column studies; also called hIgG1
# Procedure: as §1
# [4] = target: T2, human IgG2; assay: fluorescence anisotropy; pH 9.3, 0.01 M sodium bicarbonate
# [5] = target: T3, human IgG1; assay: as above
# [6] = target: T3, human IgG1; assay: fluorescence anisotropy; pH 7.4 PBS (second value, unlabelled row)
# Procedure: as §1
# [7] = target: T4, human IgG4 (human, UniProt P01861-1 1-327 = IgG part); assay: fluorescence anisotropy; pH 7.4, 0.01 M Tris-HCl
# T4 construct: Calbiochem; plasma IgG4 in anisotropy studies, myeloma-derived (cat. 400126) in batch/column studies; also called hIgG4
# Procedure: as §1
# [8] = target: T2, human IgG2; assay: fluorescence anisotropy; pH 7.4, 0.01 M Tris-HCl
# Procedure: as §1
# [9] = target: T1, human IgG3; assay: fluorescence anisotropy; pH 5.7, 0.01 M Tris-acetate
# Procedure: as §1
# [10] = target: T3, human IgG1; assay: as above
# Procedure: as §1
# [11] = target: T5, Human IgG Fc fragment isolated from plasma (human); assay: fluorescence anisotropy; pH 8.0, 0.05 M Tris-HCl, 0.2 M NaCl
# T5 construct: domain: Fc fragment; also called human Fc; Fc protein
# Procedure: as §1
# [12] = target: T3, human IgG1; assay: fluorescence anisotropy; pH 9.3, 0.2 M NaCl
# Procedure: as §1
# [13] = target: T4, human IgG4; assay: batch binding, immobilised ligand
# Procedure: (§2) IgG targets were diluted into 10 mM phosphate buffer containing 150 mM NaCl and 0.01% Tween 20, pH 7.2 (PBST) or 50 mM Tris buffer containing, 150 mM NaCl and 0.01% Tween-20, pH 7.5 (TBST). Batch (static) binding and elution studies were conducted in a 96-well assay filterplate (Millipore MultiScreen-HV, with 0.45 μm Durapore membrane, product no. MAHVN4510). The target was allowed to incubate with the resin for 1-1.5 hours with shaking at room temperature. Unbound target was collected by centrifugation of samples from the assay plate directly into a low-UV absorbing 96-well collection plate (Costar, product no. 3635 or Greiner, product no. 655801). The unbound target was then quantitated by reading the absorbance at 280 nm (normalized to 1 cm pathlength, 1.4 mg/ml A280 extinction coefficient) of the collection plate on a microplate spectrophotometer (Molecular Devices Corp., SPECTRAmax PLUS) against a buffer blank.
# (§3) The percentage bound target was determined by subtracting the mass determined as unbound from the corresponding condition's control values (control non-filtered added directly to the collection plate and/or the negative control). The assay plate was washed (3×) with 200 μl of binding buffer by vacuum filtration followed by addition of 100 μl of various elution conditions (e.g.: 0.1 M sodium bicarbonate buffer, pH 8.5 and/or 0.1 M sodium citrate buffer, pH 4.0). After a 30-60 minute incubation with shaking at room temperature, the eluted target was collected by centrifugation of the assay plate into another collection plate and quantitated in a similar manner. Percent elution of total load was then determined to characterize elution recovery efficiency under various conditions.
# [14] = target: T1, human IgG3; assay: batch binding, immobilised ligand
# Procedure: as §2, §3
# [15] = target: T2, human IgG2; assay: batch binding, immobilised ligand
# Procedure: as §2, §3
# [16] = target: T3, human IgG1; assay: batch binding, immobilised ligand
# Procedure: as §2, §3
# [17] = target: T2, human IgG2; assay: fluorescence anisotropy; pH 7.4 PBS (second value, unlabelled row)
# Procedure: as §1
# [18] = target: T1, human IgG3; assay: fluorescence anisotropy; pH 7.4, 0.01 M Tris-HCl
# Procedure: as §1
# [19] = target: T3, human IgG1; assay: fluorescence anisotropy; pH 7.4, 0.01 M Tris-HCl
# Procedure: as §1
# [20] = target: T4, human IgG4; assay: fluorescence anisotropy; PBS
# Procedure: (§4) Peptides were synthesized, fluorescein-labeled and HPLC purified as described above. Binding studies were performed using either a mixture of human plasma IgG isoforms (the Fc protein) or the individual human plasma IgG isoforms: IgG1, IgG2, IgG3, or IgG4.
# (§5) Measurements were performed in 384-well microplates with 2 nM fluorescein-labeled peptide and a varied concentration of the IgG isoform target in a volume of 10 μl using a Tecan Polarion fluorescence polarization plate reader. The Fc binding buffer was 50 mM Tris-HCl, 200 mM NaCl, pH 8.0, 0.01% Tween 20. The IgG binding buffer was PBS with 0.01% Tween 20. The binding mixtures were equilibrated for 10 minutes in the microplate at 30° C. prior to performing the measurements.
# [21] = target: T2, human IgG2; assay: fluorescence anisotropy; PBS
# Procedure: as §4, §5
# [22] = target: T3, human IgG1; assay: fluorescence anisotropy; PBS
# Procedure: as §4, §5
# [23] = target: T5, Human IgG Fc fragment isolated from …; assay: fluorescence anisotropy; 50 mM Tris-HCl, 200 mM NaCl, pH 8.0
# Procedure: as §4, §5
# [24] = target: T1, human IgG3; assay: fluorescence anisotropy; PBS
# Procedure: as §4, §5
# T4 sequence (P01861 other isoform, or with tags, fused parts or gaps): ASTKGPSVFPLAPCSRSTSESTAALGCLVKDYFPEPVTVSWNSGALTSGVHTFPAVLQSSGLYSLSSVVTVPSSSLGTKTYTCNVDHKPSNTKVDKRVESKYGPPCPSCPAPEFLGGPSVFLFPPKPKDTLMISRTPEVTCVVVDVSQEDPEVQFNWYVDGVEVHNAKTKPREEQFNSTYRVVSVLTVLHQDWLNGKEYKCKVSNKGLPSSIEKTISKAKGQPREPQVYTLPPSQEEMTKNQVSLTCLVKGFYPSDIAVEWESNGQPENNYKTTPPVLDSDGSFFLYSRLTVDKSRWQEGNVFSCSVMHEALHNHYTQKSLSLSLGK
# T2 sequence (P01859 other isoform, or with tags, fused parts or gaps): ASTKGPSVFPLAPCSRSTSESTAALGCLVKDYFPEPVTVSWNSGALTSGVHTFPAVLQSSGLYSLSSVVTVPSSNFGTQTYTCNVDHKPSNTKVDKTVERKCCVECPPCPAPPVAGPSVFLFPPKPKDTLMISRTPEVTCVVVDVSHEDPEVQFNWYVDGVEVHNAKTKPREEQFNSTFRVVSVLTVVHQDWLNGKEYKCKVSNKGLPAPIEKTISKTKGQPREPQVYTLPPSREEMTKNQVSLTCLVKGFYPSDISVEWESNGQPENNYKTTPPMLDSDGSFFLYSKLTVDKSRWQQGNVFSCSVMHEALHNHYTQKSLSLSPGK
# T3 sequence (P01857 other isoform, or with tags, fused parts or gaps): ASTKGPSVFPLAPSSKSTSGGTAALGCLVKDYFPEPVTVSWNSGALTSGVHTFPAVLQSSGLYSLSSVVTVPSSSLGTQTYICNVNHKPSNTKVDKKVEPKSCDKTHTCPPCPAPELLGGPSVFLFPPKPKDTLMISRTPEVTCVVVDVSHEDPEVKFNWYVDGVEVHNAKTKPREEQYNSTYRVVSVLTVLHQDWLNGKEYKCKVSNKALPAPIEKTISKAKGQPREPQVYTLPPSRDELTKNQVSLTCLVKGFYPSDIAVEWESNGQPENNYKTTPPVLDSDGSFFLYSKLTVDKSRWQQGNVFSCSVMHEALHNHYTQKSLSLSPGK
# T1 sequence (P01860 other isoform, or with tags, fused parts or gaps): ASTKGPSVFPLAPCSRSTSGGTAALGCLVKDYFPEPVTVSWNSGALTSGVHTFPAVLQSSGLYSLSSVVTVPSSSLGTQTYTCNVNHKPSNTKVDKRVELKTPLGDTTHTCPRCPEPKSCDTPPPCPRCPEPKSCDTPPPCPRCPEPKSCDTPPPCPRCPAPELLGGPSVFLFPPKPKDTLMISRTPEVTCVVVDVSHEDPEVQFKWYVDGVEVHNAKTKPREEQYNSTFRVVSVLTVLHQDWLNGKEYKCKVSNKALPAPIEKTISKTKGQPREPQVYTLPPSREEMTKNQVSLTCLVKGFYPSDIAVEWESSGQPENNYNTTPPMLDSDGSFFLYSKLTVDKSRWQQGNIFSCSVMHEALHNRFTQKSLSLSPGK
Binder,Kd [1],Kd [2],Kd [3],Kd [6],Kd [7],Kd [8],Kd [9],Kd [10],Kd [11],further results
B1,3000 nM,1100 nM,140 nM,400 nM,2.9 µM,2000 nM,300 nM,90 nM,1.6 µM,Kd [4]: 2000 nM; Kd [5]: 400 nM; Kd [12]: 600 nM
B2,2700 nM,3600 nM,1900 nM,2900 nM,3.2 µM,3400 nM,60 nM,100 nM,5.1 µM,bdg % (of Total Load) [13]: 14%; bdg % (of Total Load) [14]: 44%; bdg % (of Total Load) [15]: 37%; bdg % (of Total Load) [16]: 37%; Kd [17]: 3000 nM; Kd [18]: 2300 nM; Kd [19]: 2100 nM
B3,,,,,,,,,,Kd [20]: 9.7 µM; Kd [21]: 2300 nM; Kd [22]: 3.6 µM; Kd [23]: 6.8 µM
B4,,,,,,,,,,Kd [24]: 4.1 µM

# — patent publication US20030199671A1 (published 2003)
